The values that follow come from article PMC4575908.

In this data set the test system is O=C(O)[C@H]1O[C@@H](Oc2ccc([N+](=O)[O-])cc2)[C@H](O)[C@@H](O)[C@@H]1O. Put plainly: purified protein, by the assay type. Particulars: 37.0 °C.

For CpGUS (Clostridium perfringens str. 13), the Km turned out to be 1100 ± 200 µM, the kcat was found to be 2.6 ± 0.6 s⁻¹ and the kcat/Km worked out at 2400 M⁻¹ s⁻¹.
Regarding BfGUS (Bacteroides fragilis NCTC 9343), the Km worked out at 1900 ± 300 µM, the kcat came out at 18 ± 1 s⁻¹ and the kcat/Km amounted to 9500 M⁻¹ s⁻¹.
